# Assays:
# [1] = molecular target: GST-tagged TRIM21-RING (residue 1-85) (UniProt P19474); test: SPR; BIAcore T200; GST-T21-R captured on an anti-GST antibody-coated CM5 chip (GST on the reference channel); Ube2N or Ube2N~Ub injected in 1:2 dilution series from 80 µM; 30 µl/min; 20 mM Tris-HCl pH 8.0, 150 mM NaCl, 1 mM DTT; 25 °C; KD from equilibrium responses, single-site model
# [2] = molecular target: TRIM21-RING^M10E (UniProt P19474); test: NMR titration; Ube2N^C87K/K92A titrated into 100 µM 15N-labelled T21-R^M10E constructs; KD from fits of chemical shift perturbations (five peaks); 25 °C; 50 mM deuterated Tris pH 7.0, 150 mM NaCl, 1 mM deuterated DTT
# [3] = molecular target: TRIM21-RING^M10E/E12R (UniProt P19474); test: as above
Substance,Kd [1] [µM],koff [1] [s⁻¹],Kd [2] [µM],Kd [3] [µM]
Ube2N (as used in the SPR experiment) (enzyme),43,> 1,–,–
Ube2N^C87K/K92A (enzyme),–,–,15,57
isopeptide-linked Ube2N^C87K/K92A~ubiquitin conjugate (from UniProt P0CG48 1-76) (complex),5,0.15,–,–
